The results in this text go back to PMC7074997, “Biodiesel and flavor compound production using a novel promiscuous cold-adapted SGNH-type lipase (HaSGNH1) from the psychrophilic bacterium Halocynthiibacter arcticus” (Biotechnology for Biofuels, 2020).

What all share (experiment): purified protein
Type in all cases: biochemical, Falsihalocynthiibacter arcticus
Holding throughout (conditions): free enzyme, 20 mM Tris-HCl pH 8.0, 25 °C (standard assay)

Substrate in data set [1]: CC(=O)Oc1ccc([N+](=O)[O-])cc1
Substrate in data set [2]: CCCC(=O)Oc1ccc([N+](=O)[O-])cc1
Substrate in data set [3]: CCCCCC(=O)Oc1ccc([N+](=O)[O-])cc1

B1: HaSGNH1 (Falsihalocynthiibacter arcticus) (protein)
chain: MSARVQAETVVIAALGDSLTQGYGLPQEDGLVAQLQGWLDENNHDIRLINAGVSGDTTAGGRSRIEWTLTPDVDAVIVELGGNDMMRGIAPSDSRKNLTEILEILQSRDLPVLLVGLPSANNFGPEFKAEFDDMFPALSTDFETLLYPDFFTSFRTKLNDTSALTTYMQDDAIHPNAKGVAAIVEDFGPLVVELAQQTQE
notes: ORF cloned from genomic DNA (primer starts ATG AGT GCT CGC GTT: MSARV), pET-21a, N-terminal His6 tag, E. coli BL21(DE3)
As for B1, in the data set “purified protein [1]”, the Km is 0.93 (± 0.15) mM, the Vmax worked out at 29.4 µM/min, the kcat is 8.38 ± 0.53 s⁻¹ and the kcat/Km was 8900 M⁻¹ s⁻¹. In the data set “purified protein [2]”, the Km is on record as 0.80 (± 0.23) mM, the Vmax stood at 60 µM/min, the catalytic constant (kcat) is 17.1 ± 1.83 s⁻¹ and the kcat/Km came out at 21300 M⁻¹ s⁻¹. Also, in the data set “purified protein [3]”, the Km is given as 0.99 (± 0.20) mM, the Vmax was determined as 57.6 µM/min, the turnover number (kcat) turned out to be 16.5 ± 1.45 s⁻¹ and the kcat/Km came out at 16700 M⁻¹ s⁻¹.

B2: HaSGNH1 (Falsihalocynthiibacter arcticus; M86R) (protein)
chain: MSARVQAETVVIAALGDSLTQGYGLPQEDGLVAQLQGWLDENNHDIRLINAGVSGDTTAGGRSRIEWTLTPDVDAVIVELGGNDMRRGIAPSDSRKNLTEILEILQSRDLPVLLVGLPSANNFGPEFKAEFDDMFPALSTDFETLLYPDFFTSFRTKLNDTSALTTYMQDDAIHPNAKGVAAIVEDFGPLVVELAQQTQE
notes: as for B1
As for B2, in the data set “purified protein [2]”, the Km is on record as 1.26 (± 0.17) mM, the Vmax came to 46.8 µM/min, the kcat was determined as 5.1 ± 0.35 s⁻¹ and the kcat/Km came out at 4200 M⁻¹ s⁻¹.

B3: HaSGNH1 (Falsihalocynthiibacter arcticus; M86E) (protein)
chain: MSARVQAETVVIAALGDSLTQGYGLPQEDGLVAQLQGWLDENNHDIRLINAGVSGDTTAGGRSRIEWTLTPDVDAVIVELGGNDMERGIAPSDSRKNLTEILEILQSRDLPVLLVGLPSANNFGPEFKAEFDDMFPALSTDFETLLYPDFFTSFRTKLNDTSALTTYMQDDAIHPNAKGVAAIVEDFGPLVVELAQQTQE
notes: as for B1
Take B3: in the data set “purified protein [2]”, the Km is on record as 1.06 (± 0.23) mM, the Vmax came out at 36.6 µM/min, the kcat was determined as 4 ± 0.39 s⁻¹ and the kcat/Km stood at 3800 M⁻¹ s⁻¹.

B4: HaSGNH1 (Falsihalocynthiibacter arcticus; R87L) (protein)
chain: MSARVQAETVVIAALGDSLTQGYGLPQEDGLVAQLQGWLDENNHDIRLINAGVSGDTTAGGRSRIEWTLTPDVDAVIVELGGNDMMLGIAPSDSRKNLTEILEILQSRDLPVLLVGLPSANNFGPEFKAEFDDMFPALSTDFETLLYPDFFTSFRTKLNDTSALTTYMQDDAIHPNAKGVAAIVEDFGPLVVELAQQTQE
notes: as for B1
As to B4, in “purified protein [2]”, the Km is 0.68 (± 0.10) mM, the Vmax was 69 µM/min, the kcat turned out to be 15 ± 0.84 s⁻¹ and the kcat/Km stood at 22200 M⁻¹ s⁻¹.
